In patent publication US20250312499A1, “KISSPEPTIN RECEPTOR (KISS1R) TARGETED THERAPEUTICS AND USES THEREOF” (priority 2024, published 2025) one finds Ki data, which are given here for 19 molecules.

B1: Compound 291 (peptide)
peptide: {DOTA-Ahx}-[dY]NTF[azaGly]L[X2][4Pal]-NH2
SMILES: Cc1ccc(CNCC(=O)N2CCC(NC(=O)[C@H](CC(C)C)NC(=O)NNC(=O)[C@H](Cc3ccccc3)NC(=O)[C@@H](NC(=O)[C@H](CC(N)=O)NC(=O)[C@@H](Cc3ccc(O)cc3)NC(=O)CCCCCNC(=O)CN3CCN(CC(=O)O)CCN(CC(=O)O)CCN(CC(=O)O)CC3)[C@@H](C)O)(C(=O)N[C@@H](Cc3ccncc3)C(N)=O)CC2)cc1F
B2: Compound 305 (peptide)
peptide: {DOTA}-GY[Ahx]F[azaGly]L[X2]W-NH2
SMILES: Cc1ccc(CNCC(=O)N2CCC(NC(=O)[C@H](CC(C)C)NC(=O)NNC(=O)[C@H](Cc3ccccc3)NC(=O)CCCCCNC(=O)[C@H](Cc3ccc(O)cc3)NC(=O)CNC(=O)CN3CCN(CC(=O)O)CCN(CC(=O)O)CCN(CC(=O)O)CC3)(C(=O)N[C@@H](Cc3c[nH]c4ccccc34)C(N)=O)CC2)cc1F
B3: Compound 270 (peptide)
peptide: {DOTA-Ahx-4Amb}-[dY][dW]NTF[azaGly]L[Api(1-amidino)]W-NH2
SMILES: CC(C)C[C@H](NC(=O)NNC(=O)[C@H](Cc1ccccc1)NC(=O)[C@@H](NC(=O)[C@H](CC(N)=O)NC(=O)[C@@H](Cc1c[nH]c2ccccc12)NC(=O)[C@@H](Cc1ccc(O)cc1)NC(=O)c1ccc(CNC(=O)CCCCCNC(=O)CN2CCN(CC(=O)O)CCN(CC(=O)O)CCN(CC(=O)O)CC2)cc1)[C@@H](C)O)C(=O)NC1(C(=O)N[C@@H](Cc2c[nH]c3ccccc23)C(N)=O)CCN(C(=N)N)CC1
B4: Compound 328 (peptide)
peptide: Palmitoyl-[dY]K(DOTA)NTF[azaGly]L[Api(1-amidino)]W-NH2
SMILES: CCCCCCCCCCCCCCCC(=O)N[C@H](Cc1ccc(O)cc1)C(=O)N[C@@H](CCCCNC(=O)CN1CCN(CC(=O)O)CCN(CC(=O)O)CCN(CC(=O)O)CC1)C(=O)N[C@@H](CC(N)=O)C(=O)N[C@H](C(=O)N[C@@H](Cc1ccccc1)C(=O)NNC(=O)N[C@@H](CC(C)C)C(=O)NC1(C(=O)N[C@@H](Cc2c[nH]c3ccccc23)C(N)=O)CCN(C(=N)N)CC1)[C@@H](C)O
B5: Compound 1 (peptide)
peptide: {DOTA-Ahx}-[dY][dW]NTF[azaGly]L[X2]W-NH2
SMILES: Cc1ccc(CNCC(=O)N2CCC(NC(=O)[C@H](CC(C)C)NC(=O)NNC(=O)[C@H](Cc3ccccc3)NC(=O)[C@@H](NC(=O)[C@H](CC(N)=O)NC(=O)[C@@H](Cc3c[nH]c4ccccc34)NC(=O)[C@@H](Cc3ccc(O)cc3)NC(=O)CCCCCNC(=O)CN3CCN(CC(=O)O)CCN(CC(=O)O)CCN(CC(=O)O)CC3)[C@@H](C)O)(C(=O)N[C@@H](Cc3c[nH]c4ccccc34)C(N)=O)CC2)cc1F
B6: Compound 293 (peptide)
peptide: {DOTA-Ahx}-[dY][dW]NTF[azaGly]L[Apc(OMe)][4Pal]-NH2
B7: Compound 327 (peptide)
peptide: X10-[dY]K(DOTA)NT[Cha][azaGly]L[Api(1-amidino)]W-NH2
SMILES: CC(C)C[C@H](NC(=O)NNC(=O)[C@H](CC1CCCCC1)NC(=O)[C@@H](NC(=O)[C@H](CC(N)=O)NC(=O)[C@H](CCCCNC(=O)CN1CCN(CC(=O)O)CCN(CC(=O)O)CCN(CC(=O)O)CC1)NC(=O)[C@@H](Cc1ccc(O)cc1)NC(=O)CCOCCOCCNC(=O)CCc1ccc(I)cc1)[C@@H](C)O)C(=O)NC1(C(=O)N[C@@H](Cc2c[nH]c3ccccc23)C(N)=O)CCN(C(=N)N)CC1
B8: Compound 322 (peptide)
peptide: X6-[dY]K(DOTA)NTF[azaGly]L[Api(1-amidino)]F-NH2
SMILES: Cc1ccc(CCC(=O)NCCOCCOCCC(=O)N[C@H](Cc2ccc(O)cc2)C(=O)N[C@@H](CCCCNC(=O)CN2CCN(CC(=O)O)CCN(CC(=O)O)CCN(CC(=O)O)CC2)C(=O)N[C@@H](CC(N)=O)C(=O)N[C@H](C(=O)N[C@@H](Cc2ccccc2)C(=O)NNC(=O)N[C@@H](CC(C)C)C(=O)NC2(C(=O)N[C@@H](Cc3ccccc3)C(N)=O)CCN(C(=N)N)CC2)[C@@H](C)O)cc1
B9: Compound 292 (peptide)
peptide: {DOTA-Ahx}-[d2Nal]NTF[azaGly]L[X2][4Pal]-NH2
SMILES: Cc1ccc(CNCC(=O)N2CCC(NC(=O)[C@H](CC(C)C)NC(=O)NNC(=O)[C@H](Cc3ccccc3)NC(=O)[C@@H](NC(=O)[C@H](CC(N)=O)NC(=O)[C@@H](Cc3ccc4ccccc4c3)NC(=O)CCCCCNC(=O)CN3CCN(CC(=O)O)CCN(CC(=O)O)CCN(CC(=O)O)CC3)[C@@H](C)O)(C(=O)N[C@@H](Cc3ccncc3)C(N)=O)CC2)cc1F
B10: Compound 321 (peptide)
peptide: {3‑(4-iodophenyl)propanoyl}-[dY]K(DOTA)NTF[azaGly]L[Api(1-amidino)]W-NH2
B11: Compound 302 (peptide)
peptide: {DOTA}-[d2Nal]NTF[azaGly]L[Api(1-amidino)]F-NH2
SMILES: CC(C)C[C@H](NC(=O)NNC(=O)[C@H](Cc1ccccc1)NC(=O)[C@@H](NC(=O)[C@H](CC(N)=O)NC(=O)[C@@H](Cc1ccc2ccccc2c1)NC(=O)CN1CCN(CC(=O)O)CCN(CC(=O)O)CCN(CC(=O)O)CC1)[C@@H](C)O)C(=O)NC1(C(=O)N[C@@H](Cc2ccccc2)C(N)=O)CCN(C(=N)N)CC1
B12: Compound 290 (peptide)
peptide: {DOTA-Ahx}-[dW]NTF[azaGly]L[X2][4Pal]-NH2
SMILES: Cc1ccc(CNCC(=O)N2CCC(NC(=O)[C@H](CC(C)C)NC(=O)NNC(=O)[C@H](Cc3ccccc3)NC(=O)[C@@H](NC(=O)[C@H](CC(N)=O)NC(=O)[C@@H](Cc3c[nH]c4ccccc34)NC(=O)CCCCCNC(=O)CN3CCN(CC(=O)O)CCN(CC(=O)O)CCN(CC(=O)O)CC3)[C@@H](C)O)(C(=O)N[C@@H](Cc3ccncc3)C(N)=O)CC2)cc1F
B13: Compound 272 (peptide)
peptide: {DOTA-4Amb}-NTF[azaGly]L[Api(1-amidino)][4Pal]-NH2
SMILES: CC(C)C[C@H](NC(=O)NNC(=O)[C@H](Cc1ccccc1)NC(=O)[C@@H](NC(=O)[C@H](CC(N)=O)NC(=O)c1ccc(CNC(=O)CN2CCN(CC(=O)O)CCN(CC(=O)O)CCN(CC(=O)O)CC2)cc1)[C@@H](C)O)C(=O)NC1(C(=O)N[C@@H](Cc2ccncc2)C(N)=O)CCN(C(=N)N)CC1
B14: Compound 324 (peptide)
peptide: X10-[dY]K(DOTA)NTF[azaGly]L[Api(1-amidino)]Y-NH2
SMILES: CC(C)C[C@H](NC(=O)NNC(=O)[C@H](Cc1ccccc1)NC(=O)[C@@H](NC(=O)[C@H](CC(N)=O)NC(=O)[C@H](CCCCNC(=O)CN1CCN(CC(=O)O)CCN(CC(=O)O)CCN(CC(=O)O)CC1)NC(=O)[C@@H](Cc1ccc(O)cc1)NC(=O)CCOCCOCCNC(=O)CCc1ccc(I)cc1)[C@@H](C)O)C(=O)NC1(C(=O)N[C@@H](Cc2ccc(O)cc2)C(N)=O)CCN(C(=N)N)CC1
B15: Compound 295 (peptide)
peptide: {DOTA-Ahx}-[d4Pal]NTF[azaGly]L[X2][4Pal]-NH2
SMILES: Cc1ccc(CNCC(=O)N2CCC(NC(=O)[C@H](CC(C)C)NC(=O)NNC(=O)[C@H](Cc3ccccc3)NC(=O)[C@@H](NC(=O)[C@H](CC(N)=O)NC(=O)[C@@H](Cc3ccncc3)NC(=O)CCCCCNC(=O)CN3CCN(CC(=O)O)CCN(CC(=O)O)CCN(CC(=O)O)CC3)[C@@H](C)O)(C(=O)N[C@@H](Cc3ccncc3)C(N)=O)CC2)cc1F
B16: Compound 325 (peptide)
peptide: X10-[dY]K(DOTA)NTF[azaGly]L[Api(1-amidino)][Phe(4-CN)]-NH2
SMILES: CC(C)C[C@H](NC(=O)NNC(=O)[C@H](Cc1ccccc1)NC(=O)[C@@H](NC(=O)[C@H](CC(N)=O)NC(=O)[C@H](CCCCNC(=O)CN1CCN(CC(=O)O)CCN(CC(=O)O)CCN(CC(=O)O)CC1)NC(=O)[C@@H](Cc1ccc(O)cc1)NC(=O)CCOCCOCCNC(=O)CCc1ccc(I)cc1)[C@@H](C)O)C(=O)NC1(C(=O)N[C@@H](Cc2ccc(C#N)cc2)C(N)=O)CCN(C(=N)N)CC1
B17: Compound 320 (peptide)
peptide: {3‑(4-iodophenyl)propanoyl}-[d(γGlu)][dY]K(DOTA)NTF[azaGly]L[Api(1-amidino)]W-NH2
B18: Compound 323 (peptide)
peptide: X10-[dY]K(DOTA)NTF[azaGly]L[Api(1-amidino)]F-NH2
SMILES: CC(C)C[C@H](NC(=O)NNC(=O)[C@H](Cc1ccccc1)NC(=O)[C@@H](NC(=O)[C@H](CC(N)=O)NC(=O)[C@H](CCCCNC(=O)CN1CCN(CC(=O)O)CCN(CC(=O)O)CCN(CC(=O)O)CC1)NC(=O)[C@@H](Cc1ccc(O)cc1)NC(=O)CCOCCOCCNC(=O)CCc1ccc(I)cc1)[C@@H](C)O)C(=O)NC1(C(=O)N[C@@H](Cc2ccccc2)C(N)=O)CCN(C(=N)N)CC1
B19: Compound 326 (peptide)
peptide: X6-[dY]K(DOTA)NT[Cha][azaGly]L[Api(1-amidino)]W-NH2
SMILES: Cc1ccc(CCC(=O)NCCOCCOCCC(=O)N[C@H](Cc2ccc(O)cc2)C(=O)N[C@@H](CCCCNC(=O)CN2CCN(CC(=O)O)CCN(CC(=O)O)CCN(CC(=O)O)CC2)C(=O)N[C@@H](CC(N)=O)C(=O)N[C@H](C(=O)N[C@@H](CC2CCCCC2)C(=O)NNC(=O)N[C@@H](CC(C)C)C(=O)NC2(C(=O)N[C@@H](Cc3c[nH]c4ccccc34)C(N)=O)CCN(C(=N)N)CC2)[C@@H](C)O)cc1

By Ki is commonly meant the dissociation constant of the complex between target and ligand, obtained from inhibition or displacement.

Numbered stars: 1 amine (or outer) side, 2 acyl side, 3 side chain; on linkers, the order of the positions; unused ones are H or OH. Square brackets hold non-standard residues; d marks the D form. * marks the point of attachment. X2 = 4‑amino‑1‑((3-fluoro-4-methylbenzyl)glycyl)piperidine‑4‑carboxylic acid, Cc1ccc(CN(CC(=O)N2CCC(N[*:1])(C(=O)[*:2])CC2)[*:3])cc1F; X10 = 3‑(2-(2-(3-(4-iodophenyl)propanamido)ethoxy)ethoxy)propanoyl, O=C(CCc1ccc(I)cc1)NCCOCCOCCC(=O)*; X6 = 3‑(2-(2-(3-(p-tolyl)propanamido)ethoxy)ethoxy)propanoyl, Cc1ccc(CCC(=O)NCCOCCOCCC(=O)*)cc1; DOTA = O=C(O)CN1CCN(CC(=O)O)CCN(CC(=O)*)CCN(CC(=O)O)CC1; Api(1-amidino) = N=C(N)N1CCC(N)(C(=O)O)CC1; d(γGlu) = O=C(O)[C@@H](CCC(=O)[*:2])N[*:1]; Phe(4-CN) = N#Cc1ccc(C[C@H](N)C(=O)O)cc1; d2Nal = N[C@H](Cc1ccc2ccccc2c1)C(=O)O; Palmitoyl = CCCCCCCCCCCCCCCC(=O)*; 4Pal = N[C@@H](Cc1ccncc1)C(=O)O; d4Pal = N[C@H](Cc1ccncc1)C(=O)O; Cha = N[C@@H](CC1CCCCC1)C(=O)O; 4Amb = NCc1ccc(C(=O)O)cc1; Ahx = NCCCCCC(=O)O; azaGly = NNC(=O)O A value given as a limit tells only on which side of the number the result lay.

In this test the target is human kisspeptin receptor (KISS1R) (human), Q969F8. The experiment in a line: radioligand competition, hKISS1R membranes; legend: A is <10 nM.
Sequence of human kisspeptin receptor (KISS1R) (human), Q969F8 (Q969F8 whole entry): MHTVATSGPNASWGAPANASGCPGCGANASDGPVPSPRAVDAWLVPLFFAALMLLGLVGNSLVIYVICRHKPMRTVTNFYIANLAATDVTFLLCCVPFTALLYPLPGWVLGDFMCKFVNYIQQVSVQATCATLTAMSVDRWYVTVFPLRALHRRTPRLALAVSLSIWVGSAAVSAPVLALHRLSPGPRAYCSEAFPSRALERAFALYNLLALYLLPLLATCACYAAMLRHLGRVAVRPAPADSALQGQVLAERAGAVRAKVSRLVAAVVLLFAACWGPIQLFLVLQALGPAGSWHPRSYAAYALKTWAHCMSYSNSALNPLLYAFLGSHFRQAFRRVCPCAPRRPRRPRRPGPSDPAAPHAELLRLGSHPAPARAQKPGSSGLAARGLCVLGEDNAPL
B1 displayed a Ki of under 10 nM. The result for B2 reads under 10 nM; that for B3, under 10 nM. The result for B4 reads under 10 nM.

As to B5, the Ki was under 10 nM.

In the case of B6, the Ki was under 10 nM.

Take B7: the inhibition constant (Ki) was under 10 nM. As for B8, the figure is under 10 nM; as for B9, under 10 nM; as for B10, under 10 nM. The result for B11 reads under 10 nM; that for B12, under 10 nM; that for B13, under 10 nM.

Molecule B14 showed a Ki of under 10 nM. In turn, B15 came in with a Ki of under 10 nM. With B16, the Ki was under 10 nM. Turning to B17, the Ki is under 10 nM.

B18 yielded a Ki of under 10 nM. As for B19, the figure is under 10 nM.
